Results taken from paper PMC7005851.

Key:
[1] = target: T1, *^#H chain of ΔLd-2C281 IgG*^#H*^#L (WT VH, all C-region Cys to Ser); experiment: sandwich ELISA (anti-human Cκ capture); settings: chain shown with the change; lysates of HEK293 transfectants; empty vector est. 0.15; parent: est. 1.4; read off a plot
T1 chain: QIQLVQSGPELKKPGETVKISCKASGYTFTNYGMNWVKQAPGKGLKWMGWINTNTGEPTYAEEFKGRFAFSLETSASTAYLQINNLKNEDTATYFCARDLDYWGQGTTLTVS

[2] = target: *H chain of ΔLd-3D8 IgG1 variants ΔLd-*HL and ΔLd-*H*L (hinge Cys11 and Cys14 to Ser); experiment: sandwich ELISA (Protein L capture, AP-conjugated anti-human IgG/Fc detection); settings: chain shown with the change; no heat; lysate of ΔLd-3D8 *H*L transfectants; empty vector est. 0.20; parent: est. 2.2; read off a plot
[3] = target: *^#H chain of ΔLd-3D8 IgG*^#H*^#L (WT VH, all C-region Cys to Ser); experiment: sandwich ELISA (anti-human Cκ capture); settings: chain shown with the change; lysates of HEK293 transfectants; empty vector est. 0.15; parent: est. 1.7; read off a plot
[4] = target: T2, *^#H chain of ΔLd-6C407 IgG*^#H*^#L (WT VH, all C-region Cys to Ser); experiment: sandwich ELISA (anti-human Cκ capture); settings: chain shown with the change; lysates of HEK293 transfectants; empty vector est. 0.15; parent: est. 1.9; read off a plot
T2 chain: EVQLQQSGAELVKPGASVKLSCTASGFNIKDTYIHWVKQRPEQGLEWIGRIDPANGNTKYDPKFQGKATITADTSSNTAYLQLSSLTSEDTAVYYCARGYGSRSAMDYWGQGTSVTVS

B1: m4 (L) and m3 (H), WT ΔLd-2C281 IgG *#H*#L: all C-region Cys of inter- and intrachain disulfide bonds to Ser (residue numbers not printed) (protein)
chain: DVVMTQTPLSLPVSLGDQASISCRSSQSLVHSNGNTYFHWFLQKPGQSPKLLIYKVSNRFSGVPDRFSGSGSGTDFTLKISRVEAEDLGVYFCSQSTHVPYTFGGGTKLEIK
response (Abs at 405 nm) [1]: 0.15

B2: m2 (L) and m1 (H), ΔLd-HL H:Cys11Ser (hinge); H:Cys14Ser (hinge); L:Cys107Ser (Cκ) (protein)
chain: DIVMSQSPSSLAVSAGEKVTMSCKSSQSLFNSRTRKNYLAWYQQKPGQSPKLLIYWASTRESGVPDRFTGSGPGTDFTLTISSVQAEDLAVYYCKQSYYHMYTFGSGTKLEIK
response (Abs at 405 nm) [2]: 2.3

B3: m2 (L) and m1 (H), WT ΔLd-3D8 IgG *#H*#L: all C-region Cys of inter- and intrachain disulfide bonds to Ser (residue numbers not printed) (protein)
chain: DIVMSQSPSSLAVSAGEKVTMSCKSSQSLFNSRTRKNYLAWYQQKPGQSPKLLIYWASTRESGVPDRFTGSGPGTDFTLTISSVQAEDLAVYYCKQSYYHMYTFGSGTKLEIK
response (Abs at 405 nm) [3]: 0.15

B4: m6 (L) and m5 (H), WT ΔLd-6C407 IgG *#H*#L: all C-region Cys of inter- and intrachain disulfide bonds to Ser (residue numbers not printed) (protein)
chain: DIVLTQSPASLAVSLGQRATISCRASKSVSTSGYSYMLWYQQKPGQPPKLLIYLASNLESGVPARFSGSGSGTDFTLNIHPVEEEDAATYYCQHSRELPWTFGGGTKLEIK
response (Abs at 405 nm) [4]: 0.15
